Results published in article PMC7784741.

Tests used:
[1] = target: YAP-binding domain of TEAD from Anabas testudineus (residues 211-428) (Anabas testudineus); assay: SPR
[2] = target: YAP-binding domain of human TEAD4, TEAD4 217-434 (human) (UniProt Q15561); assay: SPR
Sequence of YAP-binding domain of human TEAD4, TEAD4 217-434 (human) (Q15561 217-434): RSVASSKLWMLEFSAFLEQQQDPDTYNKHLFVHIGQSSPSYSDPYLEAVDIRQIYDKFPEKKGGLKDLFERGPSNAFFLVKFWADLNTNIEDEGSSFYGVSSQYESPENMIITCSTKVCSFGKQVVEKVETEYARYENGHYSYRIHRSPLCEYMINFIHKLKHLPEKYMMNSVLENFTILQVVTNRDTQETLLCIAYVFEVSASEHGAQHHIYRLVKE

Substance | Kd [1] | Kd [2]
synthetic peptide of the TEAD-binding domain of YAP, Anabas testudineus_1 (residues 21-59) | 0.099 µM | 0.071 µM
synthetic peptide of the TEAD-binding domain of YAP, Anabas testudineus_2 (residues 21-60) | 0.06 µM | 
